Legend:
Assay in all cases: SPR
[1] = molecular target: 16A Fab W34F mutant (mouse)
[2] = molecular target: 16A Fab R32G mutant (mouse)
[3] = molecular target: 14A Fab G32R mutant (mouse)

Kd [1] [nM]	koff [1] [s⁻¹]	kon [1] [M⁻¹ s⁻¹]	Kd [2] [nM]	koff [2] [s⁻¹]	kon [2] [M⁻¹ s⁻¹]	Kd [3] [nM]	koff [3] [s⁻¹]	kon [3] [M⁻¹ s⁻¹]	Substance
3910	0.337	86200	168	0.0294	174000	128	0.0229	180000	Ser-glycosylated MUC1 peptide RPAPGS(GalNAc)TAPPAHG
1220	0.09	73600	22.9	0.00823	359000		0.00159	314000	Thr-glycosylated MUC1 peptide RPAPGST(GalNAc)APPAHG
1130	0.0901	79700		0.00183	534000	4.5	0.00137	303000	doubly glycosylated MUC1 peptide RPAPGS(GalNAc)T(GalNAc)APPAHG
3430	0.295	86200	326	0.0532	163000	122	0.0233	191000	nonglycosylated MUC1 peptide …

Source: publication PMC13625576
